These results are taken from publication PMC11098434, “The effect of TG2-inhibitory monoclonal antibody zampilimab on tissue fibrosis in human in vitro and primate in vivo models of chronic kidney disease” (PLOS ONE, 2024).

Assay [1] deals with zampilimab (human). The assay is described as follows: SPR; as the SPR with calcium (antibody captured by anti-human Fc, TG2 flowed over) but in the absence of calcium (-Ca2+); buffer of this condition not detailed. For orientation: In SPR one partner is held on a chip, and binding of the other changes the refractive index at the surface.
Assay [2] addresses zampilimab (human). Put plainly: SPR; BIAcore T200; test antibody captured (~100-200 RU) by goat anti-human IgG Fc F(ab')2 immobilised on a CM5 chip; TG2 titrated over it at 100 nM to 6.25 nM, 600 s association, up to 3200 s dissociation; 10 mM HEPES pH 7.4, 0.15 M NaCl, 0.005% Surfactant P20, 2 mM CaCl2 (+Ca2+); 1:1 fit.
Assay [3] addresses cynomolgus monkey transglutaminase 2 (cynomolgus monkey).
The target of assay [4] is T1, human transglutaminase 2 (Homo sapiens, UniProt P21980). Put plainly: cell-based or functional assay.
Assay [5] deals with T1, human transglutaminase 2. The assay is described as follows: cell-based or functional assay. This is another data set of the same source.
For assay [6], the target named is rabbit transglutaminase 2 (Oryctolagus cuniculus (rabbit), UniProt A0A5F9DRZ3). Put plainly: cell-based or functional assay.
Another assay deals with T2, TG7 (Homo sapiens (assumed), UniProt Q96PF1).
T2 construct: transglutaminase family member TG7; also called transglutaminase 7
Put plainly: ELISA; ELISA of the humanized antibodies on TG2 and other TG family members; antibody up to 100 nM; format not described. Background: ELISA stands for enzyme-linked immunosorbent assay.

Assay [7] has as its target T3, TG2 (as used in the ELISA of the humanized antibodies) (Homo sapiens (assumed), UniProt P21980).
T3 construct: transglutaminase 2 (TG2); also called transglutaminase 2
Described as above.

For a further assay, the target named is T4, TG1 (Homo sapiens (assumed), UniProt P22735).
T4 construct: transglutaminase family member TG1; also called transglutaminase 1
The assay is described as above.

The next assay concerns the target T5, TG3 (Homo sapiens (assumed), UniProt Q08188).
T5 construct: transglutaminase family member TG3; also called transglutaminase 3
The description is as above.

A further assay deals with T6, TG5 (Homo sapiens (assumed), UniProt O43548).
T6 construct: transglutaminase family member TG5; also called transglutaminase 5
Described as above.

Assay [8] addresses T1, human transglutaminase 2. Put plainly: SPR; as the SPR with calcium (antibody captured by anti-human Fc, TG2 flowed over) but in the absence of calcium (-Ca2+); buffer of this condition not detailed. Conditions: both partners purified.
For assay [9], the target named is T1, human transglutaminase 2. The assay is described as follows: SPR; BIAcore T200; test antibody captured (~100-200 RU) by goat anti-human IgG Fc F(ab')2 immobilised on a CM5 chip; TG2 titrated over it at 100 nM to 6.25 nM, 600 s association, up to 3200 s dissociation; 10 mM HEPES pH 7.4, 0.15 M NaCl, 0.005% Surfactant P20, 2 mM CaCl2 (+Ca2+); 1:1 fit. Conditions: both partners purified.

Assay [10] concerns the target rabbit transglutaminase 2 (rabbit).
Assay [11] addresses T1, human transglutaminase 2.

Substitutions are numbered along the chain they refer to.

T1 sequence (P21980 whole entry): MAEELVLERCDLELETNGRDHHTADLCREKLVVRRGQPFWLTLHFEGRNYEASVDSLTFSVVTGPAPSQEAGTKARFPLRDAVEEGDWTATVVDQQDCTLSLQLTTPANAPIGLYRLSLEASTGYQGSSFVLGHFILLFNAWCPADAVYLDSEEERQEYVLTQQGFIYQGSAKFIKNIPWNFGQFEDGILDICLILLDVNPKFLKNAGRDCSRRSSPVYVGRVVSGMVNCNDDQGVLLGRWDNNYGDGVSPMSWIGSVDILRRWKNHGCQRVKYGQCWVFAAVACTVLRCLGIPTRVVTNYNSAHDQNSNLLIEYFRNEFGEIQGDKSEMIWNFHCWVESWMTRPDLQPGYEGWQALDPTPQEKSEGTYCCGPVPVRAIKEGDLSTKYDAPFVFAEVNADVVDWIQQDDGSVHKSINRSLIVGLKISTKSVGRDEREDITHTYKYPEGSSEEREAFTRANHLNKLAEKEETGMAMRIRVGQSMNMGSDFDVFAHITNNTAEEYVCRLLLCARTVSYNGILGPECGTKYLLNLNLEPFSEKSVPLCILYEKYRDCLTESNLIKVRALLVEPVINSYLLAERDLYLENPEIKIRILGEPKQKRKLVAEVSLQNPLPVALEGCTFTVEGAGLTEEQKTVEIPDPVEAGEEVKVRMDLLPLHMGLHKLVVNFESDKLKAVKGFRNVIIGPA
T4 sequence (P22735 whole entry): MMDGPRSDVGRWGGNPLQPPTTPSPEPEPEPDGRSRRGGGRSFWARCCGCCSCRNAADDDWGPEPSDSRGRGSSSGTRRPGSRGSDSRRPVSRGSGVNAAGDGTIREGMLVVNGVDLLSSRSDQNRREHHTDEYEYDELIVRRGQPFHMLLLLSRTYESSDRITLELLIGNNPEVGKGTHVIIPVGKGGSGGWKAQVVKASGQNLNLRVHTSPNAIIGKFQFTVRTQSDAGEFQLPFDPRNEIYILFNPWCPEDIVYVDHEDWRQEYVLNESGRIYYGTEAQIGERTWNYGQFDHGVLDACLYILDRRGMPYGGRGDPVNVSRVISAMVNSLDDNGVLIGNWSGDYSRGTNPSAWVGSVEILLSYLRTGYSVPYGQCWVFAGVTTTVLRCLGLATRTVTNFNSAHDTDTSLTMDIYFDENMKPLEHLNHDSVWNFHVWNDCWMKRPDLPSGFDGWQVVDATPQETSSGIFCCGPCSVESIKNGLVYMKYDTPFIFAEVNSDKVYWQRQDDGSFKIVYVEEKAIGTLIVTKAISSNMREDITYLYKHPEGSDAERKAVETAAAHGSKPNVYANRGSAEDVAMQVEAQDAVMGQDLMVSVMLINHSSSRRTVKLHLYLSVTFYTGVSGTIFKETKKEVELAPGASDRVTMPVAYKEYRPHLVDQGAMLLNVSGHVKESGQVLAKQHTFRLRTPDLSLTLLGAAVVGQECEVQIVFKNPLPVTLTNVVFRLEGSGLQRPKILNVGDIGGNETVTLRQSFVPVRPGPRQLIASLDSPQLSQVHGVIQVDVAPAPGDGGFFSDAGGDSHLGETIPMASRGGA
T3 sequence (P21980 whole entry): as the sequence (P21980 whole entry) above
T5 sequence (Q08188 whole entry): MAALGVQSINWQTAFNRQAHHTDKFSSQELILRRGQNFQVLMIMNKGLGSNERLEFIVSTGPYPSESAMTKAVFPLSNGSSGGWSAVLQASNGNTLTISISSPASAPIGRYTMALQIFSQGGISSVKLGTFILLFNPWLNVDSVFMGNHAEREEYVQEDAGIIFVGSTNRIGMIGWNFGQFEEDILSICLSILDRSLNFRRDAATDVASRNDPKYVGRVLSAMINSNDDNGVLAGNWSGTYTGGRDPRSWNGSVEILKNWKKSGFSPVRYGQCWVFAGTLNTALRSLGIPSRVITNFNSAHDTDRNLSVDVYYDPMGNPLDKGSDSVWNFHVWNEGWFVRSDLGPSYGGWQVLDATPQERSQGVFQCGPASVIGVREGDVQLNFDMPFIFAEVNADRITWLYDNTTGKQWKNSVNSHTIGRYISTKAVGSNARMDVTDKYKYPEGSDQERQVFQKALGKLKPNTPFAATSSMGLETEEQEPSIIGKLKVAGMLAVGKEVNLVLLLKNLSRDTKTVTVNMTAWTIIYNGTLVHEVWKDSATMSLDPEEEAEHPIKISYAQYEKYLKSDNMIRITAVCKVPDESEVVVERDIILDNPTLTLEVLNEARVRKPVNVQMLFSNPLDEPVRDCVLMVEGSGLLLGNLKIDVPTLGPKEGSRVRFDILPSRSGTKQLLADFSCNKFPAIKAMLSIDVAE
T6 sequence (O43548 whole entry): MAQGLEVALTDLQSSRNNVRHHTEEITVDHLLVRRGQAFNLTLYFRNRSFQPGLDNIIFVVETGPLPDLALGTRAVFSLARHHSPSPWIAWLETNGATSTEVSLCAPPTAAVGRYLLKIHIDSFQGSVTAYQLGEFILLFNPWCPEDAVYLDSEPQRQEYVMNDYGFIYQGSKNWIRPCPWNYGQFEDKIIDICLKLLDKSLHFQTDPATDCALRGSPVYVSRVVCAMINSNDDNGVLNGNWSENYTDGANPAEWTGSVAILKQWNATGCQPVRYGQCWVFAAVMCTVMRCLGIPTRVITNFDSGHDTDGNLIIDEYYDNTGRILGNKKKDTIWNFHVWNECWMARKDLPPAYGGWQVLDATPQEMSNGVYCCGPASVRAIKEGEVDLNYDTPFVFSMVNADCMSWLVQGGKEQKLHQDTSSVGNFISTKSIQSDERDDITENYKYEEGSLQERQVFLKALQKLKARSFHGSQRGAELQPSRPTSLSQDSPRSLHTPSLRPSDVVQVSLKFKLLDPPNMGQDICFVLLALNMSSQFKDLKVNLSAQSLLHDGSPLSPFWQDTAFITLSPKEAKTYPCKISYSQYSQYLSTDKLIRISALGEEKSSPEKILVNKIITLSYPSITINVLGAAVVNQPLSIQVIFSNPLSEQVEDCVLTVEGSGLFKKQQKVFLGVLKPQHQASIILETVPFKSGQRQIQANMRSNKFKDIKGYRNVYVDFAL
T2 sequence (Q96PF1 whole entry): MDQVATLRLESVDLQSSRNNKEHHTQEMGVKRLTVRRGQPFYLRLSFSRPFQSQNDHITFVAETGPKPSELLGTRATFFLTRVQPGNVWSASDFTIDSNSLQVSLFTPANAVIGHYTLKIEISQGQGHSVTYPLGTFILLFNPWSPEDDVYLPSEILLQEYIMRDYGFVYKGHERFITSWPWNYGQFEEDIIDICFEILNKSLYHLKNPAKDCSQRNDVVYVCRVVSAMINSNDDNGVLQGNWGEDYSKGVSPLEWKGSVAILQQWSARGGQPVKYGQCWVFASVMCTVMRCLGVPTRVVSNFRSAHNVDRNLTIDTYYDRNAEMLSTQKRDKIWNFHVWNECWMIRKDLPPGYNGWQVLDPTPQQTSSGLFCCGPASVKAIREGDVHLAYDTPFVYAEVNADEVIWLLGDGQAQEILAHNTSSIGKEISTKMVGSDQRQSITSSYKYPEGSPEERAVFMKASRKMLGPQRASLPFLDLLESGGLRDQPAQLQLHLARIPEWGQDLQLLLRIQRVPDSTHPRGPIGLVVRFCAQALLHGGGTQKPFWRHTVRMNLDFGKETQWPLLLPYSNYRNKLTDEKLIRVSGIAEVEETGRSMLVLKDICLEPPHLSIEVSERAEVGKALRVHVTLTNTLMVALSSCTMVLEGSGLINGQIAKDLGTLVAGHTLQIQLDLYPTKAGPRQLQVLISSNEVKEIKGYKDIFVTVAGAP

Usually Kd stands for a measure of binding affinity in units of concentration. “cynomolgus monkey transglutaminase 2 (enzyme)”: the Kd was less than 0.05 nM with zampilimab (human) [1] and less than 0.037 nM with zampilimab (human) [2].

B1: zampilimab (antibody, V domains shown)
VH: EVQLLESGGGLVQPGGSLRLSCAASGFTLSTHAMSWVRQAPGKGLEWVATISSGGRSTYYPDSVKGRFTISRDNSKNTLYLQMNSLRAEDTAVYFCARLISTYWGQGTLVTVSS
VL: DITMTQSPSSLSASVGDRVTITCKASQDINSYLTWFQQKPGKAPKILIYLVNRLVDGVPSRFSGSGSGQDYALTISSLQPEDFATYYCLQYDDFPYTFGQGTKVEIK
notes: humanized DC1 VH; DC1 CDRs grafted on the human framework AF062260 with back mutation of the 5 Å Proximity residues; human heavy chain constant region; humanized DC1 VK; DC1 CDRs grafted on the human framework AF193851 with back mutation of the 5 Å Proximity residues; The discussion speaks of zampilimab as an IgG4P antibody in the monkey study; also called hDC1; UCB7858; source: Expi293 cells, …
A word on the EC50: it is the midpoint of the concentration-response curve. In the case of B1, the IC50 of inhibition of TG2 activity (KxD assay on recombinant protein by the text; biotin cadaverine incorporation by the table's footnote) is 0.22 nM in assay [3], 0.25 nM with human transglutaminase 2 [5] and 103 nM in assay [6]. Moreover, the “IC50 of inhibition of extracellular TG activity (biotin cadaverine incorporation) in primary human RPTEC induced with TGF-β1, four independent studies” value in the assay with human transglutaminase 2 [4] came to 119 nM. The binding result with TG7, with TG1, with TG3 and with TG5 was “no binding (tested: 100 nM)” each time. In assay [7], this molecule returned an EC50 of roughly 0.02 nM. Also, the Kd with human transglutaminase 2 [8] was less than 0.107 nM; with human transglutaminase 2 [9], less than 0.05 nM.

B2: hBB7 (antibody, V domains shown)
VH: B1 VH with F27I, T28I, L29F, T31S, H32S, I70V, N74S, F95Y, R98K, T102P
VL: B1 VL with T3K, I46T, V51T, V55M, D70E, Y71F, A72L, D92V
notes: humanized BB7 VH; BB7 CDRs grafted on the human framework AF062260 with back mutation of the 5 Å Proximity residues; human heavy chain constant region; humanized BB7 VK; BB7 CDRs grafted on the human framework AF193851 with back mutation of the 5 Å Proximity residues; also called humanized BB7; source: Expi293 cells, co-transfected heavy and kappa light chain vectors, purified from supernatant …
For the molecule B2, the IC50 of inhibition of TG2 activity (KxD assay on recombinant protein by the text; biotin cadaverine incorporation by the table's footnote) in assay [3] is 0.25 nM; in assay [10] it was 6.59 nM; in the assay with human transglutaminase 2 [5] it was 0.28 nM. For the same molecule, the binding result with TG7, with TG1, with TG3 and in the assay with TG5 was “no binding (tested: 100 nM)” throughout. Further, the EC50 in assay [7] was roughly 0.02 nM. This molecule displayed a dissociation constant Kd with human transglutaminase 2 [9] of less than 0.06 nM.

B3: mDC1 (antibody, V domains shown)
VH: EVQLVESGGGLVKPGGSLKLSCAASGFTLSTHAMSWVRQTPEKRLEWVATISSGGRSTYYPDSVKGRFTISRDNVKNTLYLQLSSLRSEDTAVYFCARLISTYWGQGTTLTVSS
VL: DITMTQSPSSIYASLGERVTITCKASQDINSYLTWFQQKPGKSPKILIYLVNRLVDGVPSRFSGSGSGQDYALTISSLEYEDMGIYYCLQYDDFPYTFGGGTKLEIK
Consider B3, for which the binding result in the assay with human transglutaminase 2 [11] is recorded as “binds”.

B4: mBB7 (antibody, V domains shown)
VH: AVQLVESGGGLVKPGGSLKLSCAASGIIFSSSAMSWVRQTPEKRLEWVATISSGGRSTYYPDSVKGRFTVSRDSAKNTLYLQMDSLRSEDTAIYYCAKLISPYWGQGTTLTVSS
VL: AIKMTQSPSSMYASLGERVIITCKASQDINSYLTWFQQKPGKSPKTLIYLTNRLMDGVPSRFSGSGSGQEFLLTISGLEHEDMGIYYCLQYVDFPYTFGGGTKLEIK
B4: the binding result with human transglutaminase 2 [11] is listed as “binds”.
